Test results: US20150104459A1 (published 2015)

Target: Hemagglutinin of influenza A/Solomon Islands/3/06 (H1N1) on whole virions (Influenza A virus A/Solomon …)
Assay: cell-based or functional assay

Binder | % Neutralization [%]
TCN-536 (5095_N01) (antibody, V domains shown) VH: QVQLQQWGAGLLKPSETLSLTCAVYGGSFSVSGYYWSWIRQPPGRGLEWIGEISHGGSTNYNPSLKSRVTISVDTTKNQFSLRLSSVTAADTAVYYCARGTDPDTEVYCRVGNCAAFDYWGQGSLVTVSS VL: EIILAQSPGTLSLSPGERATLSCRASQFVSTRSLAWYQQRPGQAPRLLIYGASSRATGIPDRFSGSGSGTDFTLTISRLEPEDFAVYYCQHYGYSPRYAFGQGSKVEIK | 75
TCN-540 (5060_F05) (antibody, V domains shown) VH: QVQLVQSGGGVVQPGRSLRLSCAASGFTFSSYAMHWVRQAPGKGLEWVAIISYDGNDQYYTDSVKGRFTISRDSSKVYLQMHRLRPEDTAVYYCAKEFETSGYFHGSFDYWGQGILVTVSS VL: QSALTQPASVSGSPGQSITISCTGTSSDVGGYNYVSWYQQHPGKAPKLLIYEVTNWPSGVSNRFSGSKSGNTASLTISGLQAEDEADYYCSSYAGSSTWVFGGGTRVTVL | 100
TCN-534 (5249_B02) (antibody, V domains shown) VH: QVQLVQSGAEVKKPGSSVKVSCRESGGTFNGYTITWVRQAPGQGLEWMGGIIPMMGTVNYAQKLQGRVTITTDYFTKTAYMDLNNLRSEDTAMYYCVKIRYTGQQLLWGQGTLVTVSS VL: DIQMTQSPSTLSASIGDRVTITCRASQSIASWLAWYQQKPGKAPKLLIYEAVNLESGVPSRFSGSGSGTDFTLTISSLQPDDFATYFCQHYGTISQTFGGGTKVEIK | 86
TCN-542 (5079_A16) (antibody, V domains shown) VH: QVQLQESGPGLVKPSQTLSLTCTVSGGSISSGNYYWNWVRQHPGKGLEWIGYIYYRGSTFYNPSLKSRVTISIDTSKNQFSLRLSSVTAADTAVYYCAKDTRSSLDNYQYGMDVWGQGTTVTVSS VL: QTVVTQEPSLTVSPGGTVTLTCASSTGAVTSSYFPNWFQQKPGQAPRPLIYSTTIRHSWTPARFSGSLLGGKAALTLSGVQPEDEADYYCLLYSGGDPVAFGGGTKLTVL | 98
TCN-522 (3212_I12) (antibody, V domains shown) VH: QVQLQQWGAGLLKPSETLSLTCTVSGGSLTDYSWNWIRQPPGKGLEWIGDTLHNGYTNYNPSLRGRVSISIDTSKNQVSLRLTSVTAADTALYYCARGSGGYGGFDYFGKLRTWDFWGQGTLVTVSS VL: DIQLTQSPSSLSASVGDRVTITCRASQGIRNDLGWYQQKPGNAPKRLIFGASSLQSGVPSRFSGSGSGTEFTLTISSLQPEDFATYYCLQHNSYPYTFGQGTKLEIK | 33
TCN-544 (5082_A19) (antibody, V domains shown) VH: QVQLQESGPGLVKPSETLSLTCTVSRGSIGHYFWSWIRQPPGKGLEWIGYISYSGSTKYNPSLRSRVTISVDTSKNQFSLNLNSVTATDTALYYCAREDYDILTGAGPGMEVWGQGTTVTVSS VL: QSMLTQPPSASGTPGQRVTISCSGSSSNIGSNTVNWFKHLPGTAPKLLIYRNDLRPSGVPDRFSGSKSGTSASLAISGLQSEDEADYYCATWDDSLNGFYVFGTGTKVTVL | 95
TCN-535 (5246_P19) (antibody, V domains shown) VH: QVQLVQSGSEVKKPGTSVKVSCTASGSVFTNYGISWVRQAPGQGLEWMGGIIPLFGAAKYAQKFQGRVTITADESTKTVYMELSRLTSKDTAIYFCAKAPRVYEYYFDQWGQGTPVTVSS VL: EIVLTQSPGTLSLSPGERATLSCRASQSVSSSQLAWYQQKPGQAPRLIIYGASTRATGIPDRFSGSGSGTDFTLTIGRLEPEDFAVFFCQQYSTSPPTFGQGTKVDFK | 82
TCN-551 (5243_D01) (antibody, V domains shown) VH: EVQLVQSGSEVKKPGESLKISCKGSGYSFSNYWIGWVRHMPGKGLEWMGIIYPGDSDTRYSPSFQGQVTMSADKSSSTVYLQWSSLKASDTAIYYCARRGGHSFGYGSGGDTHSEFDSWGQGTLVTVSS VL: QSVLTQSPSVSAAPGQKVTISCSGSDSNIGDYFVCWYQHLPGKPPQLLIYENNKRPSGIPDRFSGSKSGTSATLGITGIQTGDEADYYCATWDGSLSAWVFGGGTKLTVL | 100
TCN-523 (5248_A17) (antibody, V domains shown) VH: QVQLVQSGAEVKKPGSSVKVSCKASGGSFSNYAFSWVRQAPGQGLEWMGGTIPLLGTTNYAQKFQGRVTISADQFTSTAYMELGSLRSEDTAVYYCTRRKMTTAFDSWGQGTLVTVSS VL: QPVLTQPPSASASLGASVTLTCTLSSAYSNYKVDWYQQRPGKGPRFVMRVGTGGIVGSKGDGIPDRFSVLGSGLNRYLTIKNIQEEDESDYHCGADHGSGSNFVSPYVFGGGTKLTVL | 69
TCN-538 (3206_O17) (antibody, V domains shown) VH: QITLKESGPTLVKPTQTLTLTCVFSGFSLSITGVRVGWIRQPPGKALEWLALISWDDEKHYSPSLQSRLTITKDTSKNQVVLTMTNLDPVDTATYYCARSTDRGHVLRYFGWMLPGDAFDVWGQGTMVTVSS VL: DIVMTQSPDFLPVSLGERATINCKSSQRVLYSSNNKNYLAWYQLKPGQPPKLIIYWASTRESGVPDRFSGSGSGTEFTLTISSLQAEDVAVYYCQQYYSRPYTFGQGTKLEIK | 35
TCN-537 (3194_D21) (antibody, V domains shown) VH: QVQLQQWGSGLLKPSETLSLTCAVYGGSFRDDYWTWIRQPPGKGLEWIGEINHSGRTNYNPSLKSRVTISVDTSLKQFSLKVISVTAADTAVYYCARGTSHVSRYFDWLPPTNWFDPWGQGTQVTVSS VL: DIVLTQSPGTLSLSPGERATLSCRASQSVSSSYLAWYQQKPGQAPRLVMYGAATRATGIPDRFSGSGSGPDFTLTISRLEPEDFAMYYCQQYGNSPITFGQGTRLEIK | 89
TCN-539 (5056_A08) (antibody, V domains shown) VH: QVQLVESGGGVVQPGRSLRLSCAASEITFITYAMHWVRQAPGKGLEWVALISDDGSNKFYADSVKGRFTISRDNSKNTLYLQMNSLRAEDTAAYYCAREGVYFDSGTYRGYFDYWGQETLVTVSS VL: EIVLTQSPATLSLSPGERATLSCRASQSVSSYLAWYQQKPGQAPRLLIYDASNRATGIPARFSGSGSGTDFTLTISSLEPEDFAVYYCQQRSHWPPITFGQGTRLEIK | 97
TCN-546 (5089_L08) (antibody, V domains shown) VH: QVQLQQWGAGLLKPSETLSLTCGVYGGSLSDYYWSWIRQPPGKGLEWIGEINHSGGTNYNPSLKRRVTISVDTSKKQFSLKMNSVTAADTAVYYCARGTDPDTEVYCRAGNCAAFDFWGQGTLVTVSS VL: EIVLTQSPGTLSLSPGERATLSCRASHFVIGRAVAWYQQKPGQAPRLLIYGASSRATGIPDRFSGSGSGTDFTLTISRLETEDFAVFYCQHYGSSPRYAFGQGTKLEIK | 0
TCN-543 (5081_G23) (antibody, V domains shown) VH: QVHLVQSGAEVRKPGDSVKVSCKTSGYTFSTYPVAWVRQVPGQGLEWMGWISTYNGNTNFAQNFQGRVTLTTDTTTNTAYMEVRSLKFDDTAVYYCARVEGSYRDFWNNQNRFDPWGQGTLVTVSS VL: SYVLTQPPSVSVAPGQTARISCGGSNIGGKSVHWYQQKPGQAPVLVVYDDSGRPSGIPERFSGSNSGDTATLTISRVEAGDEADYFCQVWDNFGGVFGTGTKVTVL | 100
TCN-545 (5082_I15) (antibody, V domains shown) VH: QVQLQQWGAGLLKPSETLSLSCAVFGGSFSDYYWTWIRQPPGKGLEWIGEIKHSGRTNYNPSLESRVTISVDTSKNQFSLKLSSVTAADTAIYYCARGTDPDTEGYCRSGSCSAFDFWGQGTLVTVSS VL: EIVLTQSPGTLSLSPGERATLSCRASHFVNYRSLAWYQQTPGQVPRLLIYGASTRATGIPDRFSGSGSGTDFTLTISRLEPEDFAVYFCQQYGGSPRYTFGQGTRLEIK | 98
